± gives the standard deviation of the averaged measurements.
System: ATP
Assay: switch fluorescence ratio, 500 uM ATP over buffer (Cy3 cluster intensity, sum of 5 cycles each) (fold (ratio)); higher = stronger signal-on switching upon ATP binding; sequences stand for … in TCGTCGGCAGCGTCAGATGTGTATAAGAGACAGTTTTTTTTTTTTTTTTTTTTTTTTT…TC
Details: aptamer strand: ATP DNA aptamer (quencher-CACCTGGGGGAGTATTGCGGAGGAAGG + anchor), 100 nM annealed; ATP concentration: 500 uM
How it was run: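 Per cluster, summed Cy3 intensity from the target cycles was divided by that from the buffer cycles to give the fluorescence ratio, then averaged per switch-domain sequence. Clusters outside 100-1000 RFU were excluded. The Cy3-labelled switching-strand clusters, on a modified Illumina MiSeq flow-cell, were annealed to 100 nM quencher-labelled ATP aptamer and imaged in selection buffer, then after 15 min with 500 uM ATP at 22 °C, for five cycles with NaOH stripping and re-annealing between them.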
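Note: ATP exposure 15 min at 22 °C before imaging.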

| Sequence | switch fluorescence ratio |
| --- | --- |
| AAAGTTTTAA | 1.02 ± 0.018 |
| TGCGCCCGGC | 1.031 ± 0.0027 |
| CGTCATGGCT | 0.957 ± 0.041 |
| TGAAGTTAGT | 0.975 ± 0.03 |
| AAAGTGCCCG | 0.979 ± 0.022 |
| GCTTATTATT | 1.023 ± 0.0026 |
| TCAGATTGCA | 1.007 ± 0.0025 |
| AAATTTGGTA | 1.04 ± 0.021 |
| AGTTTTGTGT | 0.972 ± 0.0098 |
| TGTGGCACAT | 1.005 ± 0.0065 |
| AGCCCACTCG | 1.04 ± 0.05 |
| AGTTTAAAAG | 1.01 ± 0.024 |
| AAAGGGCGAC | 0.973 ± 0.014 |
| TAACGGAGGG | 0.993 ± 0.04 |
| TAGTTTTATA | 1.016 ± 0.009 |
| AACGCGGTGG | 0.941 ± 0.017 |
| TACTTGTGTG | 0.988 ± 0.011 |
| ATTTTCATGG | 0.954 ± 0.02 |
| AGAGCTAAGT | 0.982 ± 0.027 |
| TGTGGAATAA | 1.03 ± 0.039 |
| TATAAGCGGA | 0.993 ± 0.028 |
| CGTCCAGCTT | 1.51 ± 0.18 |

| Sequence | switch fluorescence ratio |
| --- | --- |
| GGTAATTGAA | 0.9878 ± 0.0076 |
| CGATGGTAGA | 1.03 ± 0.027 |
| CTGCCCGGCG | 1.03 ± 0.027 |
| CGGGGTTACT | 0.9961 ± 0.0082 |
| TAGGGAAACT | 1.21 ± 0.26 |
| TTCCAGGGCA | 1.02 ± 0.022 |
| CTTGTTGTTT | 1.03 ± 0.15 |
| GGGGGACCTT | 1.04 ± 0.061 |
| GGAAGTGGGC | 1.0283 ± 0.00079 |
| TAATACCAAG | 1 ± 0.029 |
| GGGGTAGTCA | 1 ± 0.035 |
| AATGGTGTGT | 1.01 ± 0.018 |
| CGGGTTGGGA | 1.007 ± 0.0042 |
| TGTAATGGGG | 0.966 ± 0.015 |
| GATCCTGGGG | 0.974 ± 0.054 |
| CATGAGTTGG | 0.966 ± 0.041 |
| TTGGGGTGTT | 1 ± 0.031 |
| TGCTCCTAAC | 1.3 ± 0.051 |
| GCCCGGGCAT | 0.986 ± 0.013 |
| AGTTACCGGG | 0.998 ± 0.044 |
| TACATGTCCG | 1.05 ± 0.064 |
